Assay results reported in US20110070156A1 (published 2011).

T1: Trop-2 (EGP-1, epithelial glycoprotein-1) (human, UniProt P09758 27-323)
T1 construct: whole, on cells
T1 sequence (looked up): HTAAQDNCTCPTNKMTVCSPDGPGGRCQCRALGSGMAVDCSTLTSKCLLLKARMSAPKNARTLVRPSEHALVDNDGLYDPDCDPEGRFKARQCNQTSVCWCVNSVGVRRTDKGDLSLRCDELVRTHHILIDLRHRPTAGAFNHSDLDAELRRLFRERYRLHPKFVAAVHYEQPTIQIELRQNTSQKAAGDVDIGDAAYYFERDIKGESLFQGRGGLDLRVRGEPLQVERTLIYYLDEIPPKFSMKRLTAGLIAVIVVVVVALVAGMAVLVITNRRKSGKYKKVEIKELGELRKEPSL

B1: hRS7 IgG (humanized RS7, anti-Trop-2 / anti-EGP-1) (antibody, V domains shown)
VH: QVQLQQSGSELKKPGASVKVSCKASGYTFTNYGMNWVKQAPGQGLKWMGWINTYTGEPTYTDDFKGRFAFSLDTSVSTAYLQISSLKADDTAVYFCARGGFGSSYWYFDVWGQGSLVTVSS
VL: DIQLTQSPSSLSASVGDRVSITCKASQDVSIAVAWYQQKPGKAPKLLIYSASYRYTGVPDRFSGSGSGTDFTLTISSLQPEDFAVYYCQQHYITPLTFGAGTKVEIKR

Columns and labels:
[1] = target: Trop-2 (EGP-1, epithelial glycoprotein-1) (human) (UniProt P09758)
[2] = target: Trop-2 (EGP-1, epithelial glycoprotein-1) (human) (UniProt P09758); assay: cell-based or functional assay
[3] = target: Trop-2 (EGP-1, epithelial glycoprotein-1) (human) (UniProt P09758); assay: ELISA on Trop-2-expressing cell lines PC-3 and Calu-3
[4] = target: T1, Trop-2 (EGP-1, epithelial …); assay: ELISA on Trop-2-expressing cell lines PC-3 and Calu-3; apparent dissociation constant

Row | Molecule | Kd [1] [nM] | EC50, MTS cell proliferation assay, Calu-3 cells [2] [nM] | EC50, MTS cell proliferation assay, MDA-MB-468 cells [2] [nM] | EC50, MTS cell proliferation assay, ME-180 cells [2] [nM] | EC50, MTS cell proliferation assay, T-47D cells [2] [nM] | fold of apparent KD against hRS7 [3] [fold] | Kd [4] [nM]
1 | 2L-Rap(Q)-hRS7 | 0.28 | 8.5 | 3.8 | 1.5 | 2 | 2 | 
2 | B1 |  |  |  |  |  |  | 0.14
